# Measurements reported in PMC9482650, “Quantitative fragmentomics allow affinity mapping of interactomes” (Nature Communications, 2022).
# T1: RAPGEF6, Q8TEU7
# T1 sequence (Q8TEU7 525-625, limits assumed, looked up): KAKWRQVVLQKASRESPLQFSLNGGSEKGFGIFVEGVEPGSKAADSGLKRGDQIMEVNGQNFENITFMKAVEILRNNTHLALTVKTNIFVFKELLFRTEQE
# T2: APBA2_1, Q99767
# T2 sequence (Q99767 563-664, limits assumed, looked up): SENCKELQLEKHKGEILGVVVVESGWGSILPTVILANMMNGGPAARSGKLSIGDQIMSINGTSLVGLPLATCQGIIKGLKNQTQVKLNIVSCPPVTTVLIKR
# T3: RHPN1, Q8TCX5
# T3 sequence (Q8TCX5 508-602, limits assumed, looked up): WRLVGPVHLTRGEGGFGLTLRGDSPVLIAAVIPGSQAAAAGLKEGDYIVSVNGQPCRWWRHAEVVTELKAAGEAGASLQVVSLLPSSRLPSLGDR
# T4: DFNB31_3, Q9P202
# T4 sequence (Q9P202 811-907, limits assumed, looked up): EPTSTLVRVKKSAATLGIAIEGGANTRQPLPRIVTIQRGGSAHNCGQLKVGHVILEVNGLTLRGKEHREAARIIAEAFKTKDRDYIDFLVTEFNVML
# T5: FRMPD1, Q5SYB0
# T5 sequence (Q5SYB0 52-145, limits assumed, looked up): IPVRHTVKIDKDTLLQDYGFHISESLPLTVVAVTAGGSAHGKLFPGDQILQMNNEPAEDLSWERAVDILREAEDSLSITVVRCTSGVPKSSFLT
# T6: PTPN13_1, Q12923
# T6 sequence (Q12923 1088-1188, limits assumed, looked up): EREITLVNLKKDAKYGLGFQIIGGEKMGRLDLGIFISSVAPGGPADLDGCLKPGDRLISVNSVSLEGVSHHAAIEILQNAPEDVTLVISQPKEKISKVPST
# T7: GRIP1_2, Q9Y3R0
# T7 sequence (Q9Y3R0 145-248, limits assumed, looked up): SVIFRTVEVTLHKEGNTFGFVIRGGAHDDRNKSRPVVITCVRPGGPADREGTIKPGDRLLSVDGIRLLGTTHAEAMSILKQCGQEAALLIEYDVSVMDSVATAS
# T8: MPDZ_5, O75970
# T8 sequence (O75970 695-796, limits assumed, looked up): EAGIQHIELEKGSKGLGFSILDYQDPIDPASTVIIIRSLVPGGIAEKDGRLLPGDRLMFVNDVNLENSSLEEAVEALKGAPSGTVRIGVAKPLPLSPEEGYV
# T9: DLG3_3, Q92796
# T9 sequence (Q92796 374-475, limits assumed, looked up): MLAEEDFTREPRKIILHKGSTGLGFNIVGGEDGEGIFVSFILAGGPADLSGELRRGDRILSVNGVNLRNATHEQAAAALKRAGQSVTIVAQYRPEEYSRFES
# T10: PDZD2_2, O15018
# T10 sequence (O15018 329-429, limits assumed, looked up): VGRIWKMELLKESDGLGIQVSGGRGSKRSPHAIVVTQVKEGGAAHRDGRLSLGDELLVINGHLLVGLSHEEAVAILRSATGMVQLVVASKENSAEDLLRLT
# T11: MPDZ_12, O75970
# T11 sequence (O75970 1857-1958, limits assumed, looked up): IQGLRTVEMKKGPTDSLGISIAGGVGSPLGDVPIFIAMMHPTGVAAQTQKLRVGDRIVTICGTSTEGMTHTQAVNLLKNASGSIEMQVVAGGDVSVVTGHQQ
# T12: LNX2_3, Q8N448
# T12 sequence (Q8N448 463-564, limits assumed, looked up): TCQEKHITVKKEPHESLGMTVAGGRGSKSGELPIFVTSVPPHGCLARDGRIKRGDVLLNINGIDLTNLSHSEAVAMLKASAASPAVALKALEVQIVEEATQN
# Target: T1, RAPGEF6, Q8TEU7
# Test: holdup assay
# Set-up: key: below the threshold = too weak to quantify, mostly under pKd 3.1 to 4
# Settings: plain residues with an end cap or a label only (N-terminal biotin on a linker: ado-ado)
row,pKd,Binder
1,below the threshold,"YYKRPVQEWV [MMP24, Q9Y5R2]"

# Target: GRIP2_7, Q9C0E4
# Test: holdup assay
# Set-up: key: below the threshold = too weak to quantify, mostly under pKd 3.1 to 4
# Settings: plain residues with an end cap or a label only (N-terminal biotin on a linker: ado-ado)
# GRIP2_7, Q9C0E4, sequence (Q9C0E4 934-1023): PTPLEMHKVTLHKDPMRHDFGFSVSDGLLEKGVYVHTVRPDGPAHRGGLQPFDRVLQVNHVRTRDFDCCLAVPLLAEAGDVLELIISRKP
row,pKd,Binder
1,4.32,"YYKRPVQEWV [MMP24, Q9Y5R2]"

# Target: T2, APBA2_1, Q99767
# Test: holdup assay
# Set-up: key: below the threshold = too weak to quantify, mostly under pKd 3.1 to 4
# Settings: plain residues with an end cap or a label only (N-terminal biotin on a linker: ado-ado)
row,pKd,Binder
1,below the threshold,"YYKRPVQEWV [MMP24, Q9Y5R2]"

# Target: T3, RHPN1, Q8TCX5
# Test: holdup assay
# Set-up: key: below the threshold = too weak to quantify, mostly under pKd 3.1 to 4
# Settings: plain residues with an end cap or a label only (N-terminal biotin on a linker: ado-ado)
row,pKd,Binder
1,below the threshold,"YYKRPVQEWV [MMP24, Q9Y5R2]"

# Target: LNX1_2, Q8TBB1
# Test: holdup assay
# Set-up: key: below the threshold = too weak to quantify, mostly under pKd 3.1 to 4
# Settings: plain residues with an end cap or a label only (N-terminal biotin on a linker: ado-ado)
# LNX1_2, Q8TBB1, sequence (Q8TBB1 371-470): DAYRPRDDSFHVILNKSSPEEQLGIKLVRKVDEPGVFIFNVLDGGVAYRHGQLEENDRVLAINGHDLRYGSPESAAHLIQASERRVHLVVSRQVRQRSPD
row,pKd,Binder
1,3.71,"YYKRPVQEWV [MMP24, Q9Y5R2]"

# Target: SNX27, Q96L92
# Test: holdup assay
# Set-up: key: below the threshold = too weak to quantify, mostly under pKd 3.1 to 4
# Settings: plain residues with an end cap or a label only (N-terminal biotin on a linker: ado-ado)
row,pKd,Binder
1,4.2,"YYKRPVQEWV [MMP24, Q9Y5R2]"

# Target: HTRA2, O43464
# Test: holdup assay
# Set-up: key: below the threshold = too weak to quantify, mostly under pKd 3.1 to 4
# Settings: plain residues with an end cap or a label only (N-terminal biotin on a linker: ado-ado)
# HTRA2, O43464, sequence (O43464 355-458): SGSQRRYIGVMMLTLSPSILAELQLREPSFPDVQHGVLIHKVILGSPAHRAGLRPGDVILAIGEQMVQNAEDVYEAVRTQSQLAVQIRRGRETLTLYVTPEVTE
row,pKd,Binder
1,4.4,"YYKRPVQEWV [MMP24, Q9Y5R2]"

# Target: Inadl_8, Q8NI35
# Test: holdup assay
# Set-up: key: below the threshold = too weak to quantify, mostly under pKd 3.1 to 4
# Settings: plain residues with an end cap or a label only (N-terminal biotin on a linker: ado-ado)
# Inadl_8, Q8NI35, sequence (Q8NI35 1425-1530): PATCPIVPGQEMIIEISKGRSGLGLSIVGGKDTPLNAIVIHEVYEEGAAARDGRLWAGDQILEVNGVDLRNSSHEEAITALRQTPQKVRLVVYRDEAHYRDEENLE
row,pKd,Binder
1,3.69,"YYKRPVQEWV [MMP24, Q9Y5R2]"

# Target: DLG2_2, Q15700
# Test: holdup assay
# Set-up: key: below the threshold = too weak to quantify, mostly under pKd 3.1 to 4
# Settings: plain residues with an end cap or a label only (N-terminal biotin on a linker: ado-ado)
# DLG2_2, Q15700, sequence (Q15700 189-283): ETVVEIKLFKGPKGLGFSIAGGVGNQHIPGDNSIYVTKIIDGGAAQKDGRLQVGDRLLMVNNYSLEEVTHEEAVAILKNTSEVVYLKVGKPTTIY
row,pKd,Binder
1,3.62,"YYKRPVQEWV [MMP24, Q9Y5R2]"

# Target: T4, DFNB31_3, Q9P202
# Test: holdup assay
# Set-up: key: below the threshold = too weak to quantify, mostly under pKd 3.1 to 4
# Settings: plain residues with an end cap or a label only (N-terminal biotin on a linker: ado-ado)
row,pKd,Binder
1,3.63,"YYKRPVQEWV [MMP24, Q9Y5R2]"

# Target: T5, FRMPD1, Q5SYB0
# Test: holdup assay
# Set-up: key: below the threshold = too weak to quantify, mostly under pKd 3.1 to 4
# Settings: plain residues with an end cap or a label only (N-terminal biotin on a linker: ado-ado)
row,pKd,Binder
1,below the threshold,"YYKRPVQEWV [MMP24, Q9Y5R2]"

# Target: NOS1, P29475
# Test: holdup assay
# Set-up: key: below the threshold = too weak to quantify, mostly under pKd 3.1 to 4
# Settings: plain residues with an end cap or a label only (N-terminal biotin on a linker: ado-ado)
# NOS1, P29475, sequence (P29475 9-101): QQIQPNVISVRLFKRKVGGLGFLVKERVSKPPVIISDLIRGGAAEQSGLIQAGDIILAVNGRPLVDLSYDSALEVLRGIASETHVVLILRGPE
row,pKd,Binder
1,4.39,"YYKRPVQEWV [MMP24, Q9Y5R2]"

# Target: NHERF4_1, Q86UT5-2
# Test: holdup assay
# Set-up: key: below the threshold = too weak to quantify, mostly under pKd 3.1 to 4
# Settings: plain residues with an end cap or a label only (N-terminal biotin on a linker: ado-ado)
# NHERF4_1, Q86UT5-2, sequence (Q86UT5 other isoform, or with tags, fused parts or gaps): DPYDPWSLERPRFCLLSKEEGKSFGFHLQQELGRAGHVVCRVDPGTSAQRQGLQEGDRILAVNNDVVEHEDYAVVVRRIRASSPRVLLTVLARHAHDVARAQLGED
row,pKd,Binder
1,3.47,"YYKRPVQEWV [MMP24, Q9Y5R2]"

# Target: T6, PTPN13_1, Q12923
# Test: holdup assay
# Set-up: key: below the threshold = too weak to quantify, mostly under pKd 3.1 to 4
# Settings: plain residues with an end cap or a label only (N-terminal biotin on a linker: ado-ado)
row,pKd,Binder
1,below the threshold,"YYKRPVQEWV [MMP24, Q9Y5R2]"

# Target: MAGI2_2, Q86UL8
# Test: holdup assay
# Set-up: key: below the threshold = too weak to quantify, mostly under pKd 3.1 to 4
# Settings: plain residues with an end cap or a label only (N-terminal biotin on a linker: ado-ado)
# MAGI2_2, Q86UL8, sequence (Q86UL8 410-522): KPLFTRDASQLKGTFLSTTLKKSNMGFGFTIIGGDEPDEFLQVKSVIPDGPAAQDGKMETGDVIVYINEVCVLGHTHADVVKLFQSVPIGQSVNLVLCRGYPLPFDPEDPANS
row,pKd,Binder
1,below the threshold,"YYKRPVQEWV [MMP24, Q9Y5R2]"

# Target: T7, GRIP1_2, Q9Y3R0
# Test: holdup assay
# Set-up: key: below the threshold = too weak to quantify, mostly under pKd 3.1 to 4
# Settings: plain residues with an end cap or a label only (N-terminal biotin on a linker: ado-ado)
row,pKd,Binder
1,below the threshold,"YYKRPVQEWV [MMP24, Q9Y5R2]"

# Target: T8, MPDZ_5, O75970
# Test: holdup assay
# Set-up: key: below the threshold = too weak to quantify, mostly under pKd 3.1 to 4
# Settings: plain residues with an end cap or a label only (N-terminal biotin on a linker: ado-ado)
row,pKd,Binder
1,4.03,"YYKRPVQEWV [MMP24, Q9Y5R2]"

# Target: T9, DLG3_3, Q92796
# Test: holdup assay
# Set-up: key: below the threshold = too weak to quantify, mostly under pKd 3.1 to 4
# Settings: plain residues with an end cap or a label only (N-terminal biotin on a linker: ado-ado)
row,pKd,Binder
1,below the threshold,"YYKRPVQEWV [MMP24, Q9Y5R2]"

# Target: FRMPD2_3, Q68DX3
# Test: holdup assay
# Set-up: key: below the threshold = too weak to quantify, mostly under pKd 3.1 to 4
# Settings: plain residues with an end cap or a label only (N-terminal biotin on a linker: ado-ado)
# FRMPD2_3, Q68DX3, sequence (Q68DX3 1073-1166): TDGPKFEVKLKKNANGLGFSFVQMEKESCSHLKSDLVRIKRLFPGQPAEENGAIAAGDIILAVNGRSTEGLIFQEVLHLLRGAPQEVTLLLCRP
row,pKd,Binder
1,3.52,"YYKRPVQEWV [MMP24, Q9Y5R2]"

# Target: T10, PDZD2_2, O15018
# Test: holdup assay
# Set-up: key: below the threshold = too weak to quantify, mostly under pKd 3.1 to 4
# Settings: plain residues with an end cap or a label only (N-terminal biotin on a linker: ado-ado)
row,pKd,Binder
1,5.65,"YYKRPVQEWV [MMP24, Q9Y5R2]"

# Target: AHNAK1, Q09666
# Test: holdup assay
# Set-up: key: below the threshold = too weak to quantify, mostly under pKd 3.1 to 4
# Settings: plain residues with an end cap or a label only (N-terminal biotin on a linker: ado-ado)
# AHNAK1, Q09666, sequence (Q09666 4-100): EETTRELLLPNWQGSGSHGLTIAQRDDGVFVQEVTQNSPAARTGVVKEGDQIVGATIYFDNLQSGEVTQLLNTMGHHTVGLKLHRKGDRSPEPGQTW
row,pKd,Binder
1,below the threshold,"YYKRPVQEWV [MMP24, Q9Y5R2]"

# Target: GRIP2_3, Q9C0E4
# Test: holdup assay
# Set-up: key: below the threshold = too weak to quantify, mostly under pKd 3.1 to 4
# Settings: plain residues with an end cap or a label only (N-terminal biotin on a linker: ado-ado)
# GRIP2_3, Q9C0E4, sequence (Q9C0E4 238-339): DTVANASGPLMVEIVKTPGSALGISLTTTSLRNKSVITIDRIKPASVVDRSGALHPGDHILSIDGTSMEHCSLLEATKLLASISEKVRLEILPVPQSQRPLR
row,pKd,Binder
1,3.48,"YYKRPVQEWV [MMP24, Q9Y5R2]"

# Target: T11, MPDZ_12, O75970
# Test: holdup assay
# Set-up: key: below the threshold = too weak to quantify, mostly under pKd 3.1 to 4
# Settings: plain residues with an end cap or a label only (N-terminal biotin on a linker: ado-ado)
row,pKd,Binder
1,4.39,"YYKRPVQEWV [MMP24, Q9Y5R2]"

# Target: T12, LNX2_3, Q8N448
# Test: holdup assay
# Set-up: key: below the threshold = too weak to quantify, mostly under pKd 3.1 to 4
# Settings: plain residues with an end cap or a label only (N-terminal biotin on a linker: ado-ado)
row,pKd,Binder
1,below the threshold,"YYKRPVQEWV [MMP24, Q9Y5R2]"
